Experimental data reported in patent publication US20110098212A1.
Values belong to the substance of their own block, whether it stands above or below them.

Columns and labels:
Test in all cases: cell-based or functional assay
[1] = biological target: chemokine receptor CCR2 (human) (UniProt P41597)
[2] = biological target: chemokine receptor CCR4 (human) (UniProt P51679)
[3] = biological target: chemokine receptor CCR6 (human) (UniProt P51684)
[4] = biological target: chemokine receptor CCR8 (human) (UniProt P51685)
[5] = biological target: human chemokine receptor CCR5 (human) (UniProt P51681)

Substance: GSRIEGR-U83A (from UniProt P52460 5-97) (ligand)
blocking of CCL22 (10 nM) induced chemotaxis of HUT78 cells by 100 nM pre-treatment [2]: 25%

Substance: GS-U83A (from UniProt P52460 5-97) (ligand)
blocking of CCL1 (1 nM) induced chemotaxis of HUT78 cells by 100 nM pre-treatment [4]: 10%
reduction of HIV-1 JRCSF infection of CEM-NKR-CCR5-luc cells at 1 uM [5]: 93%

More lines, now with the values ahead:

calcium mobilisation, share of THP-1 cells responding [1]: > 95%
Substance: CCL2/MCP-1 (from UniProt P13500 24-99) (ligand)

EC50, calcium mobilisation in CCR4-CHO cells [2]: 0.24 nM
chemotaxis of HUT78 cells, concentration of maximal efficacy [2]: 1 nM
Substance: CCL17/TARC (from UniProt Q92583 24-94) (ligand)

EC50, calcium mobilisation in CCR6-CHO cells [3]: 1.27 nM
Substance: CCL20/MIP-3alpha (from UniProt P78556 27-96) (ligand)
